Measured values: FireProtDB (doi:10.1016/j.bbapap.2007.05.016)
Where “and” joins values, the source holds several entries; their conditions need not be identical. Identical values can stand only once.

Conditions: Streptomyces sp. (strain N174), Thermal, Fluorescence, reversible: No, whole UniProt chain shown

B1: Chitosanase wild type, P33665 (protein)
chain: MHSQHRTARIALAVVLTAIPASLATAGVGYASTQASTAVKAGAGLDDPHKKEIAMELVSSAENSSLDWKAQYKYIEDIGDGRGYTGGIIGFCSGTGDMLELVQHYTDLEPGNILAKYLPALKKVNGSASHSGLGTPFTKDWATAAKDTVFQQAQNDERDRVYFDPAVSQAKADGLRALGQFAYYDAIVMHGPGNDPTSFGGIRKTAMKKARTPAQGGDETTYLNAFLDARKAAMLTEAAHDDTSRVDTEQRVFLKAGNLDLNPPLKWKTYGDPYVINS
Tm (pH 4.5, Sodium acetate 50 mM): 53.5 °C and 54 °C | Tm (pH 4.5, Sodium acetate 150 mM): 44.4 °C | Tm (pH 4.75, Sodium phosphate 50 mM): 53.7 °C | Tm (pH 7, Sodium phosphate 50 mM): 41.3 °C
